# From the supplement of paper PMC10201428
# ± gives the standard deviation of the averaged measurements.
# Key:
# [1] = system: VchCAST RNA-guided transposition machinery (E. coli BL21(DE3) host, lacZ target); assay: relative integration efficiency (T-LR orientation) vs wild-type transposon end (log2 (normalized fold change)); transposon end mutated: left end; higher = more efficient transposition
# Procedure: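 Pooled, barcoded VchCAST (Tn6677) mini-transposon donor libraries; each variable transposon-end sequence sits in a fixed pDonor mini-transposon context (10-bp barcode and cargo not included). Left- or right-end libraries were co-transformed with pEffector (TniQ-Cascade, TnsABC, lacZ crRNA, T7, 0.1 mM IPTG) into E. coli BL21(DE3) and grown 18 h at 37 C. T-LR and T-RL junction amplicons were sequenced; output/input barcode fold change was normalised to the mean of four wild-type barcodes and log2-transformed. Two biological replicates; zero-count/undetected variants carry floor values (-10 / -15), censored here. Barcode uncoupling by PCR recombination adds noise.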
# [2] = system: VchCAST RNA-guided transposition machinery (E. coli BL21(DE3) host, lacZ target); assay: relative integration efficiency (T-RL orientation) vs wild-type transposon end (log2 (normalized fold change)); transposon end mutated: left end; higher = more efficient transposition
# Outline: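 Each barcoded pool, 1549 left-end or 1849 right-end transposon variants in a pUC57 mini-transposon donor, went into E. coli BL21(DE3) with a T7-driven effector plasmid (CRISPR array, tniQ-cas8-cas7-cas6, tnsA-tnsB-tnsC). Plates contained 0.1 mM IPTG and were held at 37°C for 18 h. Input plasmids and genomic integration junctions were PCR-amplified and read by Illumina sequencing, with two biological output replicates and four reference barcodes. Relative integration efficiency is the fold change of output over input barcode abundance, normalised to the reference barcodes and log-transformed.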
Sequence,relative integration efficiency (log2) [1],relative integration efficiency (log2) [2]
AATGTTGTTGATGCAACCATAAAATGATAATTAATAATTATTTATAATCAGCAACTTAACCACAAAACAACCATATATTGATATCTCACAAAAGTTGGTATTCAACTATAAAATGTGAATCGAGTATTTCAGCAAAACTACTGCAGTAAGAA,-0.862 ± 0.91,-2.59 ± 1.1
AATGTTGTTGATGCAACCATAAAATGATAATTAATAATTATTTATAATCAGCAACTTAACCACAAAACACCCATAAATTGATAATTAACAAAAGTTGGTATTCAACTATAAAATGTGAATCGAGTATTTCAGCAAAACTACTGCAGTAAGAA,-0.121 ± 0.44,-2.02 ± 1.1
AATGTTGTTGATGCAACCATAAAATGATAATTAATAATTATTTATAATCAGCAACTTAACCACAAAACACCCATAAATTGATATTGCACAAAAGTTGGTATTCAACTATAAAATGTGAATCGAGTATTTCAGCAAAACTACTGCAGTAAGAA,-1.48 ± 0.57,-3.1 ± 1.4
AATGTTGTTGATGCAACCATAAAATGATAATTAATAATTATTTATAATCAGCAACTTAACCACAAAATAATTATCATTTTATGGTTGACAAAATAATTATCATTTTATGGTTGTGTGAATCGAGTATTTCAGCAAAACTACTGCAGTAAGAA,-0.969 ± 0.98,-6.03 ± 2.2
AATGTTGTTGATGCAACCATAAAGTGAGCGGGCATAATTATTTATAATCAGCAACTTAACCACAAAACAACCATATATTGAGCGAGAACAAAACAACCATAAGTTGAGCGGGGTGTGAATCGAGTATTTCAGCAAAACTACTGCAGTAAGAA,-4.11 ± 0.54,-6.46 ± 1.3
AATGTTGTTGATGCAACCATAAAGTGATAATAATTATTTATAATCAGCAACTTAACCACAAAACAACCATATATTGATATCTCACAAAACAACCATAAGTTGATATTTTTGTGAATCGAGTATTTCAGCAAAACTACTGCAGTAAGAAAGTT,-6.51 ± 1.4,-7.71 ± 1.4
AATGTTGTTGATGCAACCATAAAGTGATAGGGCCGCCGGCGGGCGCCGACTACCAGGCCAACACCCCACCAACGCGCGGTCGCGAGACACCCCACCAACGCCTGGTCGCGGGGGTGTCCGATCTGATTTCAGCAAAACTACTGCAGTAAGAA,-5.19 ± 2.5,-7.44 ± 1.6
AATGTTGTTGATGCAACCATAAAGTGATATATAATTATTTATAATCAGCAACTTAACCACAAAACAACCATATATTGATATCTCACAAAACAACCATAAGTTGATATTTTTGTGAATCGAGTATTTCAGCAAAACTACTGCAGTAAGAAAGT,-4.68 ± 0.68,-7.3 ± 1.5
AATGTTGTTGATGCAACCATAAAGTGATATGGCCGCCGGCGGGCGCCGACTACCAGGCCAACACCCCACCAACGCGCGGTCGCGAGACACCCCACCAACGCCTGGTCGCGGGGGTGTCCGATCTGATTTCAGCAAAACTACTGCAGTAAGAA,-6.67 ± 3.5,-7.18 ± 0.63
AATGTTGTTGATGCAACCATAAAGTGATATTGCCGCCGGCGGGCGCCGACTACCAGGCCAACACCCCACCAACGCGCGGTCGCGAGACACCCCACCAACGCCTGGTCGCGGGGGTGTCCGATCTGATTTCAGCAAAACTACTGCAGTAAGAA,-5.87 ± 0.86,-7.14 ± 1.3
AATGTTGTTGATGCAACCATAAAGTGATATTTAAAATGTGAGCGAGTAACAACCCTTAACCACAAAACAACCATATATTGATATCTCACAAAACAACCATAAGTTGATATTTTTGTGAATCGAGTATTTCAGCAAAACTACTGCAGTAAGAA,-0.988 ± 0.33,-2.19 ± 0.48
AATGTTGTTGATGCAACCATAAAGTGATATTTAAAGTACAGCGCGACTGAACTCATCATTAAAACGACAACCATATATTGATATCTCACAAAACAACCATAAGTTGATATTTTTGTGAATCGAGTATTTCAGCAAAACTACTGCAGTAAGAA,-0.487 ± 1.5,-2.4 ± 1.2
AATGTTGTTGATGCAACCATAAAGTGATATTTAAATTGTGAGCGGATAACAATTCTTAACCACAAAACAACCATATATTGATATCTCACAAAACAACCATAAGTTGATATTTTTGTGAATCGAGTATTTCAGCAAAACTACTGCAGTAAGAA,-3.23 ± 0.83,-3.08 ± 0.73
AATGTTGTTGATGCAACCATAAAGTGATATTTAACAACCATAAAGTGATATTTAACTTAACCACAAACAACCATATATTGATATCTCACAAAACAACCATAAGTTGATATTTTTGTGAATCGAGTATTTCAGCAAAACTACTGCAGTAAGAA,1.37 ± 1.1,-2.56 ± 0.5
AATGTTGTTGATGCAACCATAAAGTGATATTTAACAACCATATATTGATATCTCACAAAACAACCATAAGTTGATATTTTTAATTATTTATAATCAGCAACTTAACCACAAAATGTGAATCGAGTATTTCAGCAAAACTACTGCAGTAAGAA,-0.212 ± 1.1,-1.58 ± 0.69
AATGTTGTTGATGCAACCATAAAGTGATATTTAACAACCATATATTGATATCTCACAAAACAACCATAAGTTGATATTTTTGTGAATCGAGTATTTCAGCAAAACTACTGCAGTAAGAAAGTTACTTCGTGGTATGGGAGGATCAAGGAGCC,-0.0605 ± 1,-2.74 ± 1
AATGTTGTTGATGCAACCATAAAGTGATATTTAACAACCATATATTGATATCTCTAATTATTTATAATCAGCAACTTAACCACAAAAACAAAACAACCATAAGTTGATATTTTTGTGAATCGAGTATTTCAGCAAAACTACTGCAGTAAGAA,-0.167 ± 0.77,-2.13 ± 0.82
AATGTTGTTGATGCAACCATAAAGTGATATTTAACAAGACTAACATTATTAGTAACTGAGAACTATGCAACCATATATTGATATCTCACAAAACAACCATAAGTTGATATTTTTGTGAATCGAGTATTTCAGCAAAACTACTGCAGTAAGAA,-2.85 ± 0.45,-2.4 ± 0.87
AATGTTGTTGATGCAACCATAAAGTGATATTTAACTCTCTTCTTTAGCAGTCTAGTCTATTGAAACTCAACCATATATTGATATCTCACAAAACAACCATAAGTTGATATTTTTGTGAATCGAGTATTTCAGCAAAACTACTGCAGTAAGAA,-5.31 ± 0.24,-3.73 ± 1.2
AATGTTGTTGATGCAACCATAAAGTGATATTTAAGCCGGCGGGCGCCGACTACCAGGCCAACACCCCACCAACGCGCGGTCGCGAGACACCCCACCAACGCCTGGTCGCGGGGGTGTCCGATCTGATTTCAGCAAAACTACTGCAGTAAGAA,-5.38 ± 1,-6.95 ± 1.1
AATGTTGTTGATGCAACCATAAAGTGATATTTAAGCTATACTCTAGGTATCTAACTTGTCCCATTGCCAACCATATATTGATATCTCACAAAACAACCATAAGTTGATATTTTTGTGAATCGAGTATTTCAGCAAAACTACTGCAGTAAGAA,-3.91 ± 1.4,-4.82 ± 1.4
AATGTTGTTGATGCAACCATAAAGTGATATTTAAGTACTGCGCGTCTGAAGTCATCTTTAAACCGAACAACCATATATTGATATCTCACAAAACAACCATAAGTTGATATTTTTGTGAATCGAGTATTTCAGCAAAACTACTGCAGTAAGAA,-3.06 ± 1.1,-3.55 ± 0.95
AATGTTGTTGATGCAACCATAAAGTGATATTTAATAACAACCATAAAGTGATATTTAACTTAACCACCAACCATATATTGATATCTCACAAAACAACCATAAGTTGATATTTTTGTGAATCGAGTATTTCAGCAAAACTACTGCAGTAAGAA,-3.39 ± 0.26,-4.66 ± 1.1
AATGTTGTTGATGCAACCATAAAGTGATATTTAATAACAACCATATATTGATATCTCACAAAACAACCATAAGTTGATATTTTTGTGAATCGAGTATTTCAGCAAAACTACTGCAGTAAGAAAGTTACTTCGTGGTATGGGAGGATCAAGGA,-3.02 ± 1.5,-5.54 ± 1.1
AATGTTGTTGATGCAACCATAAAGTGATATTTAATAACAACCATATATTGATATCTCACAAAACAACCATAAGTTGATATTTTTTATTTATAATCAGCAACTTAACCACAAAATGTGAATCGAGTATTTCAGCAAAACTACTGCAGTAAGAA,-1.89 ± 1,-3.74 ± 0.68
AATGTTGTTGATGCAACCATAAAGTGATATTTAATAACAACCATATATTGATATCTCTTATTTATAATCAGCAACTTAACCACAAAAACAAAACAACCATAAGTTGATATTTTTGTGAATCGAGTATTTCAGCAAAACTACTGCAGTAAGAA,-2.07 ± 1.8,-3.58 ± 1
AATGTTGTTGATGCAACCATAAAGTGATATTTAATAACTTCGTATAAAGTATCCTATACGAAGTTATCAACCATATATTGATATCTCACAAAACAACCATAAGTTGATATTTTTGTGAATCGAGTATTTCAGCAAAACTACTGCAGTAAGAA,-2.99 ± 2.4,-2.17 ± 0.99
